Data set [1] concerns ErmE erythromycin resistance methyltransferase. The settings on record: Km of methylation; 10 mM MgCl2, 100 mM NH4Cl, pH 7.8, 30 min 25 C.
Another data set has as its system Ribosomal protein L11. Description: inhibition. The conditions noted are these: affinity from inhibition of TSR methylation; 5 mM MgCl2, 25 mM NH4Cl, pH 7.5, 25 C.
Data set [2] deals with TSR thiostrepton resistance methyltransferase (tsr) (Streptomyces azureus) (UniProt P18644). The conditions noted are these: Km of methylation; 5 mM MgCl2, 25 mM NH4Cl, pH 7.5, 25 C.
Data set [3] has the same target. The settings on record: Km +/-3 nM, 15 experiments; 5 mM MgCl2, 25 C.

Like-named read-outs stand apart in the source and are kept apart here.

By Ki is commonly meant a measure of affinity in units of concentration, obtained from inhibition or displacement.

Take 23S rRNA (Erm substrate): the activity in data set [1] amounted to 23 nM.

In turn, E. coli mGAR 60-mer registered a Ki in the data set with Ribosomal protein L11 of 84 nM. For the same substance, the activity in data set [2] came out at 50 nM.

For GAR 58-mer RNA, in data set [3], the activity is 47 nM.

Values taken from patent US20020037516.
